In test [1] the target is ACKR3 C-terminally tagged with SmBiT (human) (UniProt P25106).
Test [2] deals with delta opioid receptor (DOR) C-terminally tagged with SmBiT (UniProt P41143).
Test [3] has as its target kappa opioid receptor (KOR) C-terminally tagged with SmBiT (UniProt P41145).
Test [4] has as its target mu opioid receptor (MOR) C-terminally tagged with SmBiT (UniProt P35372).
Test [5] has as its target ACKR3 C-terminally tagged with SmBiT (human) (UniProt P25106). This is another data set of the same source.
Test [6] has as its target atypical chemokine receptor ACKR3 (formerly CXCR7) (human) (UniProt P25106).
Test [7] addresses mouse ACKR3 (mouse) (UniProt P56485).

Chain of ACKR3 C-terminally tagged with SmBiT (human) (P25106 whole entry): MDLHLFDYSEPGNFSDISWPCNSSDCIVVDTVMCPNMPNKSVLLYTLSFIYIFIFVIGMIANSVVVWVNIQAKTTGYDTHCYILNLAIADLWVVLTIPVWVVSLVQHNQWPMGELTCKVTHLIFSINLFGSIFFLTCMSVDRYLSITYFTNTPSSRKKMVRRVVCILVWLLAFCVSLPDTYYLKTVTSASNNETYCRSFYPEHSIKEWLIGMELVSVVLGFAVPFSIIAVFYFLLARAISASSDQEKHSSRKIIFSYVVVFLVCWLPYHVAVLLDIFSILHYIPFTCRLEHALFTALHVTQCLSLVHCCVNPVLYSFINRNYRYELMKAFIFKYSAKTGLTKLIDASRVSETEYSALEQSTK
Chain of mouse ACKR3 (mouse) (P56485 whole entry): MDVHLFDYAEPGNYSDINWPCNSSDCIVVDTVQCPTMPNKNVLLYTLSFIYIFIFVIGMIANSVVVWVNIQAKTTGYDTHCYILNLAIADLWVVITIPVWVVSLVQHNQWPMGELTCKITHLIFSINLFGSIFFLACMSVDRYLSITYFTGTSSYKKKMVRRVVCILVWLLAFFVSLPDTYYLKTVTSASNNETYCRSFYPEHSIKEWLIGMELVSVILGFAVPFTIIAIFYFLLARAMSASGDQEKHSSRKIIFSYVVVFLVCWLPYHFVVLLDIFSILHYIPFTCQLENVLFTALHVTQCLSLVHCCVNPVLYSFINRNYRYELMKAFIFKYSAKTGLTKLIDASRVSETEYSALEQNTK
Chain of atypical chemokine receptor ACKR3 (formerly CXCR7) (human) (P25106 whole entry): as the sequence (P25106 whole entry) above
Chain of mCXCL12 (P40224 22-93): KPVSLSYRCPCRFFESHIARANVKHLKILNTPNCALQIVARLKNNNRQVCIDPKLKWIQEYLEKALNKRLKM
Chain of CXCL12 (P48061 22-93): as the sequence (P40224 22-93) above, with I18V, L70F counted along it

With Adrenorphin (peptide), the β-arrestin-1 recruitment (NanoBiT, U87 cells): EC50 in test [1] was found to be 56.5 nM; in test [2], 157 nM; in test [3] it was 43.5 nM; in test [4], 41.6 nM.
For Big Dynorphin (peptide) the same measures were 108 nM, 529 nM, 19.1 nM and 652 nM.
As to “CXCL12 (from UniProt P48061 22-93) (ligand)”, the β-arrestin recruitment to ACKR3 (Fig. 4b): EC50 in test [5] turned out to be 1.2 nM.
Turning to Dynorphin A 1–13 (peptide), the β-arrestin-1 recruitment (NanoBiT, U87 cells): EC50 in test [1] is 61.9 nM; in test [2], 319 nM; in test [3], 2.5 nM; in test [4] it was 2000 nM.
On to Dynorphin A 2–13 (peptide), for which the β-arrestin-1 recruitment (NanoBiT, U87 cells): EC50 in test [1] stood at 6000 nM.
Still for that read-out and setting: the same measure for Dynorphin A 2–17 (peptide): 2000 nM.
For the substance Dynorphin A (peptide), the β-arrestin-1 recruitment (NanoBiT, U87 cells): EC50 in test [1] came out at 110 nM; in test [2], 240 nM; in test [4] it was 1500 nM.
Dynorphin B (peptide): the β-arrestin-1 recruitment (NanoBiT, U87 cells): EC50 in test [1] was 727 nM; in test [2], 158 nM; in test [3], 10.9 nM; in test [4] it was 2000 nM.
Take Endomorphin-2 (peptide): the β-arrestin-1 recruitment (NanoBiT, U87 cells): EC50 in test [4] stood at 231 nM.
In the case of Leumorphin (peptide), the β-arrestin-1 recruitment (NanoBiT, U87 cells): EC50 in test [1] stood at 1320 nM; in test [2], 3000 nM; in test [3], 21.4 nM.
Consider Nociceptin 1–13 (peptide), for which the β-arrestin-1 recruitment (NanoBiT, U87 cells): EC50 in test [1] was found to be 10000 nM.
On the same count and under the same terms, the value for “[Phe1Ψ(CH2-NH)-gly2]nociceptin-(1–13)-NH2 (peptide)” was 2970 nM.
Turning to “adrenorphin-derived peptide yggfmrrv (Daa)”, in test [6], the Supplementary Table 4: EC50 of β-arrestin-1 recruitment to ACKR3, U87 cells is > 10000 nM.
In turn, “mCXCL12 (from UniProt P40224 22-93) (ligand)” had a Supplementary Table 6: EC50 of β-arrestin-1 recruitment to mACKR3, U87 cells in test [7] of 3.32 nM.
As for β-endorphin (peptide), the β-arrestin-1 recruitment (NanoBiT, U87 cells): EC50 in test [2] is 441 nM.
